Data taken from patent US20100298541A1 (published 2010).

Target: T1, TRAIL-R2/Fc fusion protein (R & D Systems) (UniProt O14763 54-182, limits assumed)
T1 construct: not shown: Fc part of the bought fusion; captured with anti-human IgG Fc antibody
Test: biosensor, TRAIL-R2-Fc fusion protein immobilized; mono-, bi- and tetravalent D1 constructs injected
Experimental: FIG. 19. Binding affinity of Tn3 monomers and multimers. Depicted in this panel are sensorgrams from a Biosensor binding experiment using mono-, bi- and tetravalent 1C12 and D1 Tn3 constructs. TRAIL-R2-Fc fusion protein was immobilized on a sensor chip while sample proteins were injected over the chip. “tetra” refers to the tetravalent Cκ/IGHG1 fusion constructs.
A qualitative comparison of binding by monomeric 1C12, 1C12-Fc and 1C12-Cκ/1C12-IGHG1 proteins was performed by injecting samples of each of these proteins over a TRAIL-R2 chip on an Attana biosensor instrument.

T1 sequence (O14763 54-182 limits assumed): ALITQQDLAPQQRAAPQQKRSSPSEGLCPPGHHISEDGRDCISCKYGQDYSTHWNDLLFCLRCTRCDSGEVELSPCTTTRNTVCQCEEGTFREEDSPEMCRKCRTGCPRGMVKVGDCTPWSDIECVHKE

B1: D1 (designed binder)
chain: IEVKDVTDTTALITWSPGERIWMFTGCELTYGIKDVPGDRTTIDLTEDENQYSIGNLKPDTEYEVSLICPNYERISNPAKETFTT
B1: no binding.
